# According to the supplement of paper PMC6757056:
# ± gives the standard deviation of the averaged measurements.
# B1: library; a variant is named by its letters at N, in order (parent)
# chain: GCUGUCACCGAGAAACUGUGAAGUAUAUCUUAAACCUGGGCACUUAAAAGAUAUAUGGAGUUAGUAGUGCAACCUGCUCGGUCUGAUGAGUCCNNNNNNGGACGAAACAGC
# Experiments:
# [1] = variants of: B1; experiment: normalized RNA/DNA level without ligand (relative to sTRSVctl = 100) (log10 (% of sTRSVctl)); HEK293T; ligand: cyclic di-GMP (c-di-GMP-II aptamer); higher = less ribozyme self-cleavage, higher mRNA level; conditions: reporter: mCherry (pCS4076), ligand present: no
# Summary of the method: (§1)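 RNA level was computed as RNA reads over DNA reads divided by a spiked-in non-cleaving sequence or by the top sequences, then scaled and log-transformed. Scaling was ×100 with log10, the top group was 25 sequences, and the threshold was ≥100 DNA reads. The reads came from HEK293T cells transfected at 4 µg per 6-well well with ribozyme switch library plasmids (mCherry, or eGFP in some ligand experiments). Total RNA was extracted with EDTA 72 h after transfection, with any ligand added 1 h before it.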
# [2] = variants of: B1; experiment: normalized RNA/DNA level with ligand (relative to sTRSVctl = 100) (log10 (% of sTRSVctl)); HEK293T; ligand: cyclic di-GMP (c-di-GMP-II aptamer); ligand concentration (+) RNA-Seq: 1 mM; higher = less ribozyme self-cleavage, higher mRNA level; conditions: reporter: mCherry (pCS4076), ligand present: yes
# Summary of the method: as §1
Variant,normalized RNA/DNA level without ligand (log10) [1],normalized RNA/DNA level with ligand (log10) [2]
GGUGCC,1.82 ± 0.077,1.95 ± 0.15
GGUGCA,1.78 ± 0.12,1.91 ± 0.13
CGGUAG,1.731 ± 0.0046,1.84 ± 0.038
AGUACC,1.66 ± 0.018,1.86 ± 0.15
AGUACU,1.7515 ± 2.5e-05,1.85 ± 0.089
AGUACG,1.58 ± 0.046,1.74 ± 0.065
AGUACA,1.51 ± 0.038,1.67 ± 0.059
UGUAGC,1.73 ± 0.043,1.83 ± 0.15
UGUAGG,1.72 ± 0.035,1.85 ± 0.072
UGUAGA,1.67 ± 0.045,1.82 ± 0.12
GGUUGC,1.7 ± 0.018,1.87 ± 0.021
GGUUGA,1.57 ± 0.15,1.74 ± 0.035
UGUGAG,1.7 ± 0.038,1.87 ± 0.07
UGUGAA,1.658 ± 0.012,1.85 ± 0.078
AGUUGA,1.57 ± 0.04,1.75 ± 0.1
AGUUAA,1.52 ± 0.08,1.68 ± 0.086
AGUUAU,1.67 ± 0.06,1.86 ± 0.11
AGUUAC,1.7078 ± 0.0015,1.85 ± 0.15
AGUAGC,1.618 ± 0.0046,1.8 ± 0.12
CGUCGG,1.7 ± 0.039,1.81 ± 0.13
CGUCGC,1.76 ± 0.024,1.87 ± 0.16
CGUCGU,1.78 ± 0.061,1.9 ± 0.13
GGUCUU,1.64 ± 0.039,1.79 ± 0.13

Variant,normalized RNA/DNA level without ligand (log10) [1],normalized RNA/DNA level with ligand (log10) [2]
GGUCUC,1.73 ± 0.075,1.87 ± 0.12
GGUCUA,1.52 ± 0.046,1.72 ± 0.039
CGUGAG,1.7 ± 0.026,1.83 ± 0.05
CGUAAC,1.557 ± 0.0076,1.72 ± 0.091
CGUAAG,1.77 ± 0.056,1.86 ± 0.12
CGUGGG,1.62 ± 0.058,1.8 ± 0.073
CGUGGU,1.74 ± 0.021,1.87 ± 0.076
CGUGGC,1.748 ± 0.0072,1.85 ± 0.15
AGGGUG,1.64 ± 0.046,1.7 ± 0.12
AGGGUC,1.71 ± 0.07,1.85 ± 0.18
AGGGUA,1.53 ± 0.035,1.6 ± 0.12
AGGGUU,1.6902 ± 0.0014,1.77 ± 0.056
CGUUGC,1.78 ± 0.027,1.88 ± 0.071
CGUUGA,1.52 ± 0.043,1.71 ± 0.14
CGGGGU,1.72 ± 0.0034,1.83 ± 0.13
CGGGGG,1.62 ± 0.059,1.77 ± 0.026
AGUCAC,1.67 ± 0.062,1.81 ± 0.049
AGUCAU,1.69 ± 0.071,1.85 ± 0.13
AGUCAA,1.48 ± 0.039,1.69 ± 0.1
AGUCAG,1.571 ± 0.011,1.73 ± 0.16
CGGUCG,1.78 ± 0.042,1.9 ± 0.13
CGGUCU,1.56 ± 0.064,1.72 ± 0.11
CGUAUC,1.58 ± 0.045,1.76 ± 0.098

Variant,normalized RNA/DNA level without ligand (log10) [1],normalized RNA/DNA level with ligand (log10) [2]
CGUAUU,1.33 ± 0.083,1.57 ± 0.11
CGUAUG,1.73 ± 0.019,1.86 ± 0.13
GGUCCC,1.83 ± 0.045,1.92 ± 0.11
GGUCCA,1.777 ± 0.015,1.95 ± 0.022
GGUCCG,1.9 ± 0.057,1.96 ± 0.13
UGGUAA,1.56 ± 0.095,1.79 ± 0.096
UGGUAC,1.684 ± 0.015,1.83 ± 0.092
UGGUAG,1.66 ± 0.035,1.82 ± 0.13
UGGUAU,1.661 ± 0.013,1.82 ± 0.13
GGUUAU,1.64 ± 0.049,1.8 ± 0.2
GGUUAA,1.54 ± 0.11,1.67 ± 0.029
GGUUAG,1.54 ± 0.062,1.7 ± 0.08
GGUUAC,1.76 ± 0.057,1.87 ± 0.033
GGGUAC,1.73 ± 0.012,1.8 ± 0.045
GGGUAU,1.75 ± 0.041,1.9 ± 0.23
GGGUAA,1.61 ± 0.091,1.7 ± 0.12
GGGUAG,1.85 ± 0.057,1.89 ± 0.059
GGUGAA,1.34 ± 0.076,1.61 ± 0.07
GGUGAU,1.67 ± 0.041,1.76 ± 0.057
GGUGAC,1.75 ± 0.0083,1.86 ± 0.14
UGUGGC,1.742 ± 0.0053,1.89 ± 0.082
UGUGGU,1.667 ± 0.012,1.81 ± 0.065
UGUGGA,1.58 ± 0.067,1.76 ± 0.062

Variant,normalized RNA/DNA level without ligand (log10) [1],normalized RNA/DNA level with ligand (log10) [2]
UGGGUG,1.73 ± 0.04,1.86 ± 0.098
UGGGUU,1.717 ± 0.016,1.82 ± 0.16
UGGGUC,1.8 ± 0.026,1.93 ± 0.11
UGGGUA,1.61 ± 0.071,1.78 ± 0.029
AGGUAG,1.54 ± 0.034,1.66 ± 0.046
AGGUAC,1.67 ± 0.038,1.81 ± 0.077
GGGGUC,1.654 ± 0.0072,1.79 ± 0.12
GGGGUA,1.52 ± 0.018,1.62 ± 0.13
GGUUCU,1.66 ± 0.044,1.77 ± 0.083
GGUUCA,1.6 ± 0.043,1.73 ± 0.12
GGUUCG,1.7 ± 0.046,1.88 ± 0.075
CGUACG,1.777 ± 0.013,1.857 ± 0.017
CGUACC,1.74 ± 0.039,1.89 ± 0.09
UGGUUA,1.67 ± 0.019,1.85 ± 0.042
UGGUUG,1.686 ± 0.011,1.83 ± 0.11
UGGUUC,1.7 ± 0.033,1.83 ± 0.12
UGGUUU,1.761 ± 0.011,1.88 ± 0.12
GGUACU,1.71 ± 0.067,1.82 ± 0.16
GGUACA,1.52 ± 0.034,1.73 ± 0.051
GGUACC,1.82 ± 0.038,1.93 ± 0.12
GGUACG,1.661 ± 0.0037,1.821 ± 0.013
UGUACG,1.792 ± 0.0062,1.87 ± 0.032
UGUACA,1.778 ± 0.0071,1.88 ± 0.095

Variant,normalized RNA/DNA level without ligand (log10) [1],normalized RNA/DNA level with ligand (log10) [2]
UGUCGU,1.648 ± 0.0058,1.84 ± 0.12
UGUCGA,1.76 ± 0.033,1.81 ± 0.14
UGUCGG,1.74 ± 0.027,1.86 ± 0.077
UGUCGC,1.76 ± 0.049,1.85 ± 0.15
GGUAGC,1.671 ± 0.014,1.8 ± 0.12
GGUAGA,1.34 ± 0.04,1.55 ± 0.1
AGUGUA,1.51 ± 0.042,1.66 ± 0.11
AGUGUU,1.617 ± 0.0053,1.79 ± 0.12
AGUGUG,1.57 ± 0.084,1.71 ± 0.13
CGGUUC,1.55 ± 0.028,1.75 ± 0.069
CGGUUU,1.6584 ± 0.0015,1.75 ± 0.1
CGGUUG,1.68 ± 0.14,1.812 ± 0.013
GGGUGC,1.749 ± 0.006,1.85 ± 0.093
GGUGGA,1.55 ± 0.11,1.7 ± 0.065
GGUGGC,1.68 ± 0.03,1.83 ± 0.076
UGUCAG,1.67 ± 0.042,1.82 ± 0.1
UGUCAA,1.69 ± 0.048,1.82 ± 0.096
UGUCAU,1.68 ± 0.049,1.81 ± 0.1
UGUCAC,1.75 ± 0.04,1.87 ± 0.15
AGUGGA,1.44 ± 0.11,1.62 ± 0.086
AGUGGU,1.56 ± 0.089,1.759 ± 0.014
AGUGGC,1.6 ± 0.079,1.79 ± 0.11
UGUCCC,1.81 ± 0.072,1.88 ± 0.17
